One experiment has as its target T1, hTLT-1 ECD-HPC4 M91A (human, UniProt Q86YW5 16-162).
T1 construct: As m27; also called Ala mutant 24
T1 chain: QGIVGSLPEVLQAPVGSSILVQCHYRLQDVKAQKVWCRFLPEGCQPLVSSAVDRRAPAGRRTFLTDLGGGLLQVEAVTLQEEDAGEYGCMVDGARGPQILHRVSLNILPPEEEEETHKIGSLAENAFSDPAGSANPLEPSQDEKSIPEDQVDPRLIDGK
The experiment can be described thus: SPR (ProteOn), mAb captured by anti-hFc, 100 nM mutant. Here is the method:
Anti-hFc Polyclonal antibody was immobilized onto separate flow cells of a GLM sensor chip using a 1:1 mixture of 0.4 M EDAC [1-ethyl-3-(3-dimethylaminopropyl) carbodiimide hydrochloride] and 0.1 M Sulfo-NHS [N-hydroxysulfosuccinimide]. Each anti-body was diluted in 10 mM sodium acetate pH 5.0 to a concentration of […], and was immobilized to an individual flow cell at 30 μl/min for 240s. The antibodies were immobilized to flow cells A1-A6 (horizontal direction). After immobilization, the active sites on the flow cell were blocked with 1 M ethanolamine. The final immobilization level of capture antibody typically ranged from approximately 9,000 to 10,000 RU in one experiment. Capture of the anti-TLT1 antibodies 0197-0000-0023, 0197-0000-0051, 0197-0000-0061 and 0197-0000-0062 was conducted by diluting to […] into HBS-EP buffer (10 mM HEPES, 150 mM NaCl, 3 mM EDTA, 0.05% surfactant P20, pH 7.4) and injected at 30 μl/min for 60s in vertical direction, creating interspot reference points with only anti-human Fc antibodies. The final capture level of test antibodies typically ranged from approximately 200 to 300 RU in one experiment. […] Each hTLT-1 ECD-HPC4 protein was diluted to 100 nM, based on the calculated average Mw, into HBS-EP buffer and injected at 30 μl/min for 240s. […]

Experiment [1] addresses T2, TLT1 (human TLT-1, reagent of the SPR studies, source NN) (human, UniProt Q86YW5 16-162, limits assumed).
T2 sequence: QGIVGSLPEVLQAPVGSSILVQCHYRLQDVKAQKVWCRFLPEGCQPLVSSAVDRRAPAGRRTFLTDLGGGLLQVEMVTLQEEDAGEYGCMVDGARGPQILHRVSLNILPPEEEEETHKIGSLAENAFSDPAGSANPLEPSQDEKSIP
The experiment can be described thus: SPR (Biacore), mAb captured via anti-human Fc mAb, TLT1 as analyte. Here is the method:
The mAbs of interest were either immobilized directly to a CM5 chip or by capture via a human Fc capture mAb immobilized to a CM5 chip.
Capture via human Fc mAb: Human Fc mAb was immobilised to approx 10.000 RU. The mAb of interest was added (approx 100 nM). Two-fold dilutions of TLT1 from 200 nM to 0.2 nM were tested. Running and dilution buffer: 10 mM HEPES, 150 mM, 0.005% p20, pH 7.4. Regeneration was obtained in 3 M MgCl₂

This note sets out measurements from patent US20120178908A1 (Novo Nordisk, published 2012).

B1: mAb 0061 HC2; LC2 (antibody, V domains shown)
VH: EVKLLESGGGLVQPGGSLKLSCAASGFDFSRYWMTWVRQAPGKGLEWIGEINPDSSTINYNPSLKDKFIISRDNAKNTLYLQMSEVRSEDTALYYCASGVFTSWGQGTLVTVSA
VL: DVVMTQTPLSLPVSLGDQASISCRSSQSLVHRNGNTYFHWALQKPGQSPKLLIYKVSNRFSGVPDRFSGSGSGTDFTLKISRVEAEDLGVYFCSQSTHVPYTFGGGTKLEIKR
notes: also called 0197-0000-0061; 0012HC.T60N + 0012LC.C36A
For B1, the binding result with hTLT-1 ECD-HPC4 M91A is recorded as “binds”. In experiment [1], this molecule yielded an equilibrium dissociation constant (Kd) of 3.75 nM, a dissociation rate constant (koff) of 0.0035 s⁻¹ and an association rate constant (kon) of 932000 M⁻¹ s⁻¹.

As a reminder, the Kd is the constant that tells how readily two partners part at equilibrium. A higher Kd goes with weaker binding. As usually defined, the koff is a measure of how fast the partners let go of each other. The low end stands for slow dissociation, the high end for fast dissociation. Broadly, the kon is a measure of how fast the partners come together. A higher kon goes with faster complex formation.
